Assay results from paper PMC12703665, “A Trifunctional, Rare-Earth Theranostic Chelator Platform to Enable Diagnostic Nuclear Imaging, Surgical Resection, and Radiotherapy” (Journal of the American Chemical Society, 2025).

Experiments:
[1] = mouse, in vivo
[2] = system: PC-3 PIP/flu (PSMA+/PSMA–) tumor xenografts; assay: in vivo
Method: For in vivo evaluation, athymic nude mice-bearing bilateral PC-3 PIP/flu (PSMA^+/PSMA^–) tumor xenografts were used (Figure ).
5.1.1 Urine metabolite analysis
Metabolite analysis was performed by analyzing aliquots of 100 µL of mouse urine collected during biodistribution studies. If the collected urine volume was less than 100 µL, 1X DPBS was added in order to bring it up to a final volume of 100 µL. In cases where the radioactivity present in urine decayed to levels too low for detection by HPLC, fractions eluted from the radioHPLC were collected every 30 seconds, and the amount of radioactivity was estimated via gamma counting (Hidex Automatic Gamma Counter). The chromatogram was then reconstructed by plotting the recorded counts per minute recorded for each fraction […]
5.2 In vitro optical imaging
Tumor tissues were harvested from male, nude, athymic mice bearing xenografts from PC3-PIP (PSMA+) and PC3-flu (PSMA-) were fixed for (24) hours in 10% neutral buffered formalin, processed and embedded into paraffin blocks. Tissues were sectioned at 5µm, dried and then deparaffinized with a 25-minute oven bake at 60°C, followed by a series of xylene and alcohol washes
Antigens were prepared in PerkinElmer’s 1X Antigen Retrieval pH 9.0 (AR900250ML) for 8 minutes in the microwave. Tissue sections were blocked with 1X Antibody Diluent/Block buffer (Akoya).
Ab-PSMA, natEu-pepa-pic2-C-Hex-KuE and DAPI staining.
Tissues were stained with Ab-PSMA (Ventana 760-6076; 11.75 µg/mL; 100uL per slide) for 30 minutes at room temperature. Slides were washed with TBS-T and secondary goat anti-rabbit was applied for 10 minutes at room temperature. Slides were washed with TBS-T and Akoya’s Opal dye 520 was applied for 10 minutes at room temperature. Antigen retrieval and blocking steps were performed again.
An aqueous solution of natEu-pepa-pic2-C-Hex-KuE (10 µM) was diluted at 1:1 with 1X Diluent/Block (Akoya) and 100 µL were applied per slide for 2 hours at room temperature. For DAPI staining, DAPI working solution (Akoya) was applied for 10 minutes at room temperature before mounting with ProLong™ Gold Antifade Mountant. Slides were imaged by Nuance Multispectral Scope at 20x objective.
5.3 In vivo biodistribution in PSMA +/- mice models, PET-CT and SPECT imaging.
Male, nude, athymic mice were purchased from Jackson Laboratory. Ten days preceding the imaging study, mice were implanted with 1 × 10^6 cells (PC-3 PIP on the right, PC-3 flu on the left shoulder) in 100 µL of a 1:2 mixture of DPBS 1X/matrigel matrix subcutaneously.
A solution of 100 µL of labeled radiotracer was administered via tail vein injection into 8–10-week-old male nude mice (n = 4 per cohort) bearing PSMA+/- tumors.
For biodistribution studies, mice were euthanized at 2 hours (n=4) post-injection of the radio tracer. Organs were extracted, intestinal content removed, and activity assessed via a gamma counter. Biodistribution analysis values are represented as percentage of injected dose per gram of organ weight (% ID/g).

[3] = 2 h post injection, n = 4, listed as [86Y]YIII-pepa-pic2-C-Hex-KuE

With `COCCOCCOCCOc1ccc(C#Cc2cc(CN3CCN(Cc4cccc(C(=O)O)n4)CCN(Cc4cc(SC[C@H](N)C(=O)NCCCCCC(=O)NCCCC[C@H](NC(=O)N[C@@H](CCC(=O)O)C(=O)O)C(=O)O)cc(C(=O)O)n4)CC3)nc(C(=O)O)c2)cc1` [[86Y]Y-pepa-pic2-C-Hex-KuE, metal not drawn] the “probe remaining intact (urine metabolite analysis)” value [1] was over 93%, the Blood [2, 3] was 1.22 ± 1.01 % ID/g and the Bone [2, 3] was 0.74 ± 0.21 % ID/g. For the same molecule, the Heart [2, 3] was 0.54 ± 0.25 % ID/g, the “Large Intestine” value [2, 3] was 1.64 ± 0.79 % ID/g and the Liver [2, 3] was 1.00 ± 0.32 % ID/g. The Lungs [2, 3] was 1.96 ± 0.84 % ID/g, the Muscle [2, 3] was 0.35 ± 0.13 % ID/g and the “Small Intestine” value [2, 3] was 0.59 ± 0.25 % ID/g. The Spleen [2, 3] was 2.43 ± 1.34 % ID/g, the “Tumor +” value ([2]; PSMA+ tumor, 2 h post injection, n = 4, listed as [86Y]YIII-pepa-pic2-C-Hex-KuE) was 12.53 ± 2.95 % ID/g and the Tumor - ([2]; PSMA- tumor, 2 h post injection, n = 4, listed as [86Y]YIII-pepa-pic2-C-Hex-KuE) was 1.20 ±0.45 % ID/g. The “enhancement of probe localization in kidneys compared to tumor tissue” value ([2]; imaging and biodistribution data) was 6–10 fold.
